According to FireProtDB (doi:10.1021/bi00118a013):

B1: Guanyl-specific ribonuclease T1, P00651 (parent)
chain: MMYSKLLTLTTLLLPTALALPSLVERACDYTCGSNCYSSSDVSTAQAAGYQLHEDGETVGSNSYPHKYNNYEGFDFSVSSPYYEWPILSSGDVYSGGSPGADRVVFNENNQLAGVITHTGASGNNFVECT

Variants of: B1
Settings: Aspergillus oryzae (strain ATCC 42149 / RIB 40), pH 7, Fluorescence, MOPS 30 mM, reversible: yes, structure 1RN1, whole UniProt chain shown

Row | Variant | ddG of mutation (higher = less stable) (50.9 °C, Thermal) [kcal/mol] | Tm (Thermal) [°C] | change of melting temperature, mutant - wild type (higher = more stable) (Thermal) [°C] | unfolding enthalpy (van 't Hoff) (Thermal) [kcal/mol] | ddG of mutation (higher = less stable) (25 °C, Urea) [kcal/mol] | denaturant m value (25 °C, Urea) [kcal/mol/M] | denaturant midpoint (higher = more stable) (25 °C, Urea) [M]
1 | S43A | -0.57 | 52.6 | 1.7 | 109 |  |  | 
2 | Y94F | 1.35 | 46.9 | -4 | 89 | 1.36 | 1.32 | 4.17
3 | N70A |  |  |  |  | 2.08 | 1.3 | 3.59
4 | Y37F | 2.03 | 44.9 | -6 | 101 | 2.11 | 1.27 | 3.56
5 | S38A | 1.08 | 47.7 | -3.2 | 99 | 1.23 | 1.28 | 4.29
6 | N35A | 0.71 | 48.8 | -2.1 | 101 | 0.9 | 1.28 | 4.56
7 | S90A | 1.56 |  |  |  | 1.44 | 1.38 | 4.11
8 | N62A | 0 | 50.9 | 0 | 111 | -0.03 | 1.31 | 5.31
9 | Y83F | 0.44 |  |  |  | 0.5 | 1.29 | 4.88
10 | N107A | 2.91 | 42.3 | -8.6 | 91 | 2.87 | 1.44 | 2.92
11 | Y68F | -1.15 | 54.3 | 3.4 | 106 | -1.14 | 1.17 | 6.24
12 | Y82F | 0.71 | 48.8 | -2.1 | 99 | 0.78 | 1.26 | 4.65
